Measurements taken from US20250066745A1, “MUTANTS AND USE THEREOF” (BGI SHENZHEN, priority 2021, published 2025).

What was measured:
[1] = Luminescence activity assay of purified Gaussia luciferase mutants on coelenterazine; assay type: biochemical; parameters: key to Activity of mutant relative to wild-type Gaussia luciferase without the signal peptide: ratio of mutant luminescence intensity to wild-type Gaussia luciferase; conditions: Substrate CTZ (Table 16)
Protocol: (§1) In this Example, the protein concentration was determined with a BCA quantitative kit (Thermo Scientific™ Pierce™ BCA Protein Assay Kit) accurately. The purified luciferase obtained in Example 5 was diluted with diluent (50 mM Tris-HCl, pH 8.0, 100 mM NaCl, 0.1% (v/v) Tween-20) to 1 μg/mL. The diluted luciferase, taken for 10 μL, was moved into a black 96-well plate, then added with 90 μL of the substrates coelenterazine, fluoro-coelenterazine or coelenterazine derivative ZS2 (purchased from Biolab) which was diluted into 100 μM with the same diluent, and the luminescence intensity of the plate was read with a self-luminescence module of a microplate reader. The mutation site of the mutant, the measured luminescence intensity, the ratio of luminescence intensities of the advantageous mutants to the wild-type Gaussia luciferase without the signal peptide having the sequence shown in SEQ ID NO: 3 are shown in Table 15. The results of catalytic activity assay of the advantageous mutants relative to the wild-type Gaussia luciferase without the signal peptide having the sequence shown in SEQ ID NO: 3 on substrate coelenterazine are shown in FIG. 6. […] The results of catalytic activity assay of the advantageous mutants relative to the wild-type Gaussia luciferase without the signal peptide having the sequence shown in SEQ ID NO: 3 on substrate fluoro-coelenterazine are shown in FIG. 7.
(§2) The new mutant library constructed in Example 7 was screened and tested for substrate specificity. Expression and purification schemes were the same as that in Example 5, and the activity assay scheme was the same as that in Example 6. The respective catalytic activities of combinatorial mutants on coelenterazine, fluoro-coelenterazine or coelenterazine derivative ZS2, and coelenterazine derivative ZS26 (purchased from BIOLAB) were assayed, and comparisons among the substrate specificities of the combinatorial mutants were based on the ratios of catalytic activities on two corresponding substrates.

[2] = Luminescence activity assay of purified Gaussia luciferase mutants on coelenterazine derivative ZS2; assay type: biochemical; parameters: key to Activity of mutant relative to wild-type Gaussia luciferase without the signal peptide: ratio of mutant luminescence intensity to wild-type Gaussia luciferase; conditions: Substrate ZS2 (Table 16)
Protocol: as §1, §2

Row | Molecule | Activity of mutant relative to wild-type Gaussia luciferase without the signal peptide [1] | Activity of mutant relative to wild-type Gaussia luciferase without the signal peptide [2]
1 | F26R N27D V29C A30G V31L A32D S33V A36V T37S: Gaussia luciferase mutant (protein, SIGNAL (1)..(17), Gaussia luciferase mutant) MGVKVLFALICIAVAEAKPTENNEDRDICGLDVNFVSTDLDADRGKLPGKKLPLEVLKEMEANARKAGCTRGCLICLSHIKCTPKMKKFIPGRCHTYEGDKESAQGGIGEAIVDIPEIPGFKDLEPMEQFIAQVDLCVDCTTGCLKGLANVQCSDLLKKWLPQRCATFASKIQGQVDKIKGAGGD | 1.308 | 0.128
2 | N27D V29E A30G V31I A32V S33K A36I T37D L40T: Gaussia luciferase mutant (protein, SIGNAL (1)..(17), Gaussia luciferase mutant) MGVKVLFALICIAVAEAKPTENNEDFDIEGIVKNFIDTDTDADRGKLPGKKLPLEVLKEMEANARKAGCTRGCLICLSHIKCTPKMKKFIPGRCHTYEGDKESAQGGIGEAIVDIPEIPGFKDLEPMEQFIAQVDLCVDCTTGCLKGLANVQCSDLLKKWLPQRCATFASKIQGQVDKIKGAGGD | 0.779 | 1.379
3 | F26R V29D A30G A32D A36I T37A L40R: Gaussia luciferase mutant (protein, SIGNAL (1)..(17), Gaussia luciferase mutant) MGVKVLFALICIAVAEAKPTENNEDRNIDGVDSNFIATDRDADRGKLPGKKLPLEVLKEMEANARKAGCTRGCLICLSHIKCTPKMKKFIPGRCHTYEGDKESAQGGIGEAIVDIPEIPGFKDLEPMEQFIAQVDLCVDCTTGCLKGLANVQCSDLLKKWLPQRCATFASKIQGQVDKIKGAGGD | 0.453 | 2.460
4 | F26R V29R A30V V31L S33G A36V T37R: Gaussia luciferase mutant (protein, SIGNAL (1)..(17), Gaussia luciferase mutant) MGVKVLFALICIAVAEAKPTENNEDRNIRVLAGNFVRTDLDADRGKLPGKKLPLEVLKEMEANARKAGCTRGCLICLSHIKCTPKMKKFIPGRCHTYEGDKESAQGGIGEAIVDIPEIPGFKDLEPMEQFIAQVDLCVDCTTGCLKGLANVQCSDLLKKWLPQRCATFASKIQGQVDKIKGAGGD | 0.423 | 0.115
5 | F26S V29L A30G S33R T37K L40A: Gaussia luciferase mutant (protein, SIGNAL (1)..(17), Gaussia luciferase mutant) MGVKVLFALICIAVAEAKPTENNEDSNILGVARNFAKTDADADRGKLPGKKLPLEVLKEMEANARKAGCTRGCLICLSHIKCTPKMKKFIPGRCHTYEGDKESAQGGIGEAIVDIPEIPGFKDLEPMEQFIAQVDLCVDCTTGCLKGLANVQCSDLLKKWLPQRCATFASKIQGQVDKIKGAGGD | 1.067 | 0.787
6 | F26T N27N V29E V31I A32G S33V A36R T37G L40G: Gaussia luciferase mutant (protein, SIGNAL (1)..(17), Gaussia luciferase mutant) MGVKVLFALICIAVAEAKPTENNEDTNIEAIGVNFRGTDGDADRGKLPGKKLPLEVLKEMEANARKAGCTRGCLICLSHIKCTPKMKKFIPGRCHTYEGDKESAQGGIGEAIVDIPEIPGFKDLEPMEQFIAQVDLCVDCTTGCLKGLANVQCSDLLKKWLPQRCATFASKIQGQVDKIKGAGGD | 0.940 | 1.995
7 | F26R V29F A30D V31L S33G T37D L40A: Gaussia luciferase mutant (protein, SIGNAL (1)..(17), Gaussia luciferase mutant) MGVKVLFALICIAVAEAKPTENNEDRNIFDLAGNFADTDADADRGKLPGKKLPLEVLKEMEANARKAGCTRGCLICLSHIKCTPKMKKFIPGRCHTYEGDKESAQGGIGEAIVDIPEIPGFKDLEPMEQFIAQVDLCVDCTTGCLKGLANVQCSDLLKKWLPQRCATFASKIQGQVDKIKGAGGD | 1.017 | 1.781
8 | K66N H79K P84L S103T E110A D123N L124M E128G V138E: Gaussia luciferase mutant (protein, SIGNAL (1)..(17), Gaussia luciferase mutant) MGVKVLFALICIAVAEAKPTENNEDFNIVAVASNFATTDLDADRGKLPGKKLPLEVLKEMEANARNAGCTRGCLICLSKIKCTLKMKKFIPGRCHTYEGDKETAQGGIGAAIVDIPEIPGFKNMEPMGQFIAQVDLCEDCTTGCLKGLANVQCSDLLKKWLPQRCATFASKIQGQVDKIKGAGGD | 1.111 | 1.709

The remaining lines, values ahead:

Row | Activity of mutant relative to wild-type Gaussia luciferase without the signal peptide [1] | Activity of mutant relative to wild-type Gaussia luciferase without the signal peptide [2] | Molecule
9 | 1.000 | 1.611 | K66R E102K E110G D123N V138D: Gaussia luciferase mutant (protein, SIGNAL (1)..(17), Gaussia luciferase mutant) MGVKVLFALICIAVAEAKPTENNEDFNIVAVASNFATTDLDADRGKLPGKKLPLEVLKEMEANARRAGCTRGCLICLSHIKCTPKMKKFIPGRCHTYEGDKKSAQGGIGGAIVDIPEIPGFKNLEPMEQFIAQVDLCDDCTTGCLKGLANVQCSDLLKKWLPQRCATFASKIQGQVDKIKGAGGD
10 | 1.302 | 0.587 | K66R P84A E102S S103I A104G E110A L124M V138E: Gaussia luciferase mutant (protein, SIGNAL (1)..(17), Gaussia luciferase mutant) MGVKVLFALICIAVAEAKPTENNEDFNIVAVASNFATTDLDADRGKLPGKKLPLEVLKEMEANARRAGCTRGCLICLSHIKCTAKMKKFIPGRCHTYEGDKSIGQGGIGAAIVDIPEIPGFKDMEPMEQFIAQVDLCEDCTTGCLKGLANVQCSDLLKKWLPQRCATFASKIQGQVDKIKGAGGD
11 | 0.172 | 0.112 | K66N P84L E102K E110P D123N: Gaussia luciferase mutant (protein, SIGNAL (1)..(17), Gaussia luciferase mutant) MGVKVLFALICIAVAEAKPTENNEDFNIVAVASNFATTDLDADRGKLPGKKLPLEVLKEMEANARNAGCTRGCLICLSHIKCTLKMKKFIPGRCHTYEGDKKSAQGGIGPAIVDIPEIPGFKNLEPMEQFIAQVDLCVDCTTGCLKGLANVQCSDLLKKWLPQRCATFASKIQGQVDKIKGAGGD
12 | 0.122 | 1.209 | K66R P84A E102A S103I A104G E110A: Gaussia luciferase mutant (protein, SIGNAL (1)..(17), Gaussia luciferase mutant) MGVKVLFALICIAVAEAKPTENNEDFNIVAVASNFATTDLDADRGKLPGKKLPLEVLKEMEANARRAGCTRGCLICLSHIKCTAKMKKFIPGRCHTYEGDKAIGQGGIGAAIVDIPEIPGFKDLEPMEQFIAQVDLCVDCTTGCLKGLANVQCSDLLKKWLPQRCATFASKIQGQVDKIKGAGGD
13 | 0.626 | 3.079 | K66R P84L E102D S103T E110A V138E: Gaussia luciferase mutant (protein, SIGNAL (1)..(17), Gaussia luciferase mutant) MGVKVLFALICIAVAEAKPTENNEDFNIVAVASNFATTDLDADRGKLPGKKLPLEVLKEMEANARRAGCTRGCLICLSHIKCTLKMKKFIPGRCHTYEGDKDTAQGGIGAAIVDIPEIPGFKDLEPMEQFIAQVDLCEDCTTGCLKGLANVQCSDLLKKWLPQRCATFASKIQGQVDKIKGAGGD
14 | 0.674 | 1.560 | K66R E102D E110P V138D: Gaussia luciferase mutant (protein, SIGNAL (1)..(17), Gaussia luciferase mutant) MGVKVLFALICIAVAEAKPTENNEDFNIVAVASNFATTDLDADRGKLPGKKLPLEVLKEMEANARRAGCTRGCLICLSHIKCTPKMKKFIPGRCHTYEGDKDSAQGGIGPAIVDIPEIPGFKDLEPMEQFIAQVDLCDDCTTGCLKGLANVQCSDLLKKWLPQRCATFASKIQGQVDKIKGAGGD
